{
  "source": "patent US20170020994",
  "key": {"[1]": {"tested_on": "RA-TALE_ICP4 (ICP4-TALE-VP16) (synthetic construct)", "assay": "cell_activity", "conditions": "Fluc reporter with ICP4 promoter, 293T"}, "[2]": {"tested_on": "RA-TALE_ICP0 (ICP0-TALE-VP16) (synthetic construct)", "assay": "cell_activity", "conditions": "Fluc reporter with ICP0 promoter, 293T"}},
  "data": [
    {"sequence": "GGCAGATGGCGCGGATG (double strand) [ICP4 promoter TALE site]", "values": [
      {"measurement": "activity (fold activation)", "setting": "[1]", "result": 60}
    ]},
    {"sequence": "GGGACGCGCGGCCAT (double strand) [ICP0 promoter TALE site]", "values": [
      {"measurement": "activity (fold activation)", "setting": "[2]", "result": 20}
    ]}
  ]
}
